In a protein production outcome set (Wang et al. 2014):

Assay: label from the status in PepcDB records

In the case of “MGIKEKEIELETLKREIAQAEASLEQDFIKYMVDKTNEKVEDLFFSNKPEFYRFVFTEQNNYLREKLTDKVGRAMDLSDEIQRDKTENESLENGTKFKKRFVFELQNDLIFLRTKRNTYSAKTEHENFQERLLAAKDTFRLIKANDFKTKIYPYQITLRLKTKHIIVFRWLKKEIIKRFVKKDLFTETLSIKITDKKGQKYALIANYNHASDIIELMLDDKTYTTTLYYQKPLFDLIKNSNFNLTIKDNTLEINQAKKRLFV”, the protein production is reported as “failed”.

In the case of “REHNYPDTCFEHFVASSVAVYPVFELAAKSTGRIGQLLRSAVYESSAWQQGGNTHFGAFLLLIPLAMAAGEISREQGEQPGCGKTFFRIEAEEFENLASHAHAFVRETDCEDAVEFYRAFGHAGVRVNSVEEFDLEDPEATSDLRNQNITLYSLMEIAKGYDLIANEWTSGFGRCLEGAKIILDFMDARNCREEALAGGSVSICSGTGINEAVVYTFLKLLSKHRDTFIQTKFDAETADYVSSRAGEVLSGWEISGKKAGDFASILPRIQEFDSELLDKRINPGSTADIIIAALFIALLGGLR”, the protein production is reported as “failed”.

In the case of “MKFRGNFVCQPRAGPAESRPTRPFTPRPSATGSLFMSNQHFVSPDLIRQGFSRAMSDMYREEVPLYGALMELVAEVNAQVLERQPALARHLQSSGELQRLDLERHGAIRVGSAAELATLARLFAVMGMQPVGYYDLTPAGVPVHSTAFRAVHEAALQVSPFRVFTSLLRLELIDNPELRSFAEQVLARRQIFTPQVLELIQQAEAAGGLDAEDAERFIRQALETFRWHHHATVTAAQYASLSAQHRLIADVVAFKGPHINHLTPRTLDIDEVQRLMPARGITPKAVIEGPPRRECPILLRQTSFKALEESVAFTDQAQSQGSHSARFGEIEQRGAALTPKGRELYDRLLNAARDALGDFPNEANAQRYNQLMQEHFREFPDSHPAMREQGLAYFRYFVSETGLAARNQPQRPTTLAALLAAGHLSAEPLVYEDFLPVSAAGIFQSNLGDDSQSHYAGQSNRQAFEAALGRPTLDELQLYAQTQQRSLEHCAATLGLPAL”, the protein production is reported as “failed”.

For “MVDWSTLPKDLLDLISKSLESSFDLIQFRSVCSSWRSAAEPKSPLPTHHLPILPDNGGSLFPDSAVGFRLSQRSILLIKPHEPCIESDSFGWLIKVEEDLNVPRKVTLLDPLCDTRNSIPENFPRVLDMSKFKVRELGREFKLHYFNTVGDIVESLYLEKAVVKYLDCDGDYKFVLLTIHVSGKLAVFRSWDRAWTVINDMPSPYDDVMLFDGRFFAVDNNGRTVVVDYSSLKLTLVASPVFGGDKKFLIESCGEMLLVDMYLSLEAVEGDPGFVEEIFEHPAFYMNERTVKFKVYRFVEREESWVDVYDLEDKMLFLGDDSTFSASASDILPLCDGSSVFFNGNVFNGEDLGAMQDRDLGVFDFRSGKIELVQKLPEYAKLFWPPPPWITSHARAEDHIGETSSQS”, the protein production was “failed”.

For “MSNVRIRQATTDDLIGIFEAHRNSVERLCTSEYSDQQIRMWLDGRSPETYREAVEKGSLWLAEGEQIEGFVELDGNEVSKLFIRGDVARRGLGSRLLEVALARLRASGASSAYLEATLTAEGFYAYHGFQKIGEGTFSRGNSPVSIEIIKMERPL”, the protein production was “failed”.

With “MAEVHNQLEIKFRLTDGSDIGPKAFPDATTVSALKETVISEWPREKENGPKTVKEVKLISAGKVLENSKTVKDYRSPVSNLAGAVTTMHVIIQAPVTEKEKKPKGDPKMNKCVCSVM” the protein production was “not failed”.

In the case of “MKKKKYVNSGTVTLLSFAVESECTFLDYIKGGTQINFTVAIDFTASNGNPSQSTSLHYMSPYQLNAYALALTAVGEIIQHYDSDKMFPALGFGAKLPPDGRVSHEFPLNGNQENPSCCGIDGILEAYHRSLRTVQLYGPTNFAPVVTHVARNAAAVQDGSQYSVLLIITDGVISDMAQTKEAIVNAAKLPMSIIIVGVGQAEFDAMVELDGDDVRISSRGKLAERDIVQFVPFRDYVDRTGNHVLSMARLARDVLAEIPDQLVSYMKAQGIRPRPPPAAPTHSPSQSPARTPPASPLHTHI”, the protein production is reported as “failed”.

In the case of “MEAIFWLALALVAFTYAGYPLVLAVWDGAREALAAVRFVSGGDDRRGRATEGWPTVTLLFSAFDEEAWIRRKIENCLALDYPPDRLEILVGCDGCTDRTAEIAREVGGSRVKVHALSPRAGKASVLSRLVPQARGDLVVLTDANVMLERGALRALARRFREPGVGAVVGRLRLFNPTRREFEESLYWKYETAIKYYEGKHGCVLGANGGIYAIRRILFSPLPPDTIVDDFVIPVRIAARGWEVPFEPEAVAFEETTEDAGHEFGRRARIGAGNWQALARVPELLDPRTGFLCFAFVSHKLLRWSAPFLLAAAAVANGLLAAAPGAWGYRALLLAQAAFYGLALAGRHGAVGLRGPVRRLASLAHYFVAMNAALAVGLWRFLRRSQRAAWQRTERAGPSVPAA”, the protein production is reported as “failed”.

With “MWAFPERFEGRHVRLEPLALAHLPAFLRHYDPEVYRFLSRAPVAPTEEALRAHLEGLLGEPGRVNWAILFGKEVAGRISVIAPEPEHAKLELGTMLFKPFWGSPANKEAKYLLLRHAFEVLRAERVQFKVDLRNERSQRALEALGAVREGVLRKNRRLPDGAFRDDVVYSVLKEEWPGVKARLEARLYGASGN” the protein production was “not failed”.

For “MEINNNISSTIPLVDIVLVFCYVFSFYVIGPLTSSVIIALPLMFCCLYKKKWGYCLLLELKNSFIVRIFISQWLLIGIAVFYSCLHLTMELEYIKVLIAQMFHFICGIFIIIYLKYQKQYTTLKIEQTIIWAFLVQSIIQLIAMSIPSFAHFILYFSRAHDLQDAYGGGVRGLALSSGVGWSLGLAYGLIYIVFVKRYLLSGVNMKSTLIGILLLMGTIFAGRTGFVGACLGGIFFIISNQLSYRTKLMFVLKILLGVILFFLCIYFLFPSMTEHLVDNVFPFAFEPFYKMYYNDEFSTSSTDRLEEMWRVSTSVEEILYGSGSFIDTITGAYYKHIDIGILRNLFYWGIGGYILLIIYQLILIAPIKYNKIQRVSHFNMFFYKLLIIVYLFLLECKAVTIGLNKMTFSVIFLIAYFYFDEIHSKKYIAELR”, the protein production was “failed”.

With “MLLAMALLIIGLLLVAYGADRLVFAASILCRTFGIPPLIIGMTVVSIGTSLPEIIVSAAASLHGQLDLAVGAALGSNITNILLILGLAALVRPFTVHSDVLRRELPLMLFVSVVAGSVLHDGQLSRSDGIFLLLLAVLWLLFIVKIARLAERQGNDSLTREQLAELPREGGLPVAFLWLGIALVIMPMATRMVIDNATVLANYFAMSELTLGLTVIAVGTSLPELATAIAGVRKGENDIAVGNLIGANIFNLAIVLGLPALIAPGEINPLAFGRDYSVMLLVSVVFALLCWRHPRQIGRGAGILLTGGFIVWLAMLYWLSPLLVG” the protein production was “failed”.

With “MKIIDKLYEKVSKNGFVCIGLDSSIDYIPENMKAGKSVSEALFSYNKEIIDQTYDVCAIYKLQIAYYESYGIEGMIAYRDTLSYLREKDLLSIGDVKRSDIAASAKMYAKAHFEGDFETDFITLNPYMGMDSIEPYEEYIEKGDKGVFVLLRTSNPGAKDFEVLPVDGEEFFYKVGDKMRELNEKYIGKSGFGPIGLVVGATHSEEVEKIRKRYDKMFFLIPGFGAQKADSMNVYKLLEGLNGGVVNSSRAILKNWQNYEDGSEKVGYYARKKAIETYEEIKANEVL” the protein production was “not failed”.

With “MNARLENLMQWLKEKNVEAAFLTSTPNVFYMTNIHCEPHERLLGMFVFQEKEPILICPKMEEGQARNAGWAHEIIGFTDTDRPWDMIAKAIKDRGINANAVAIEKEHLNVERYEELTKLFPNAAFTSAEEKVRELRLIKDEKELSILREAAKMADYAVEVGVNAIKEDRSELEVLAIIEHELKTEGIHKMSFDTMVLAGANSALPHGIPGANKMKRGDFVLFDLGVIIDGYCSDITRTVAFGDISEEQTRIYNTVLAGQLQAVEACKPGVTLGAIDNAARSVIADAGYGDFFPHRLGHGLGISVHEYPDVKAGNESPLKEGMVFTIEPGIYVPNVGGVRIEDDIYITKDGSEILTKFPKELQFVK” the protein production was “failed”.

In the case of “MNALALGAKSFPIFWHYWNPIWGYYLSRNVMRPISQFLPMWLAVLVTFLVSGALHDLAIALVKWQAMFFFTPWFGIMGVIVIASNKYGLSYGALPWIMRAMINLLFILSSFSLTELTQGLLRLSA”, the protein production is reported as “failed”.

In the case of “MAQIISNAAVGRTLLILLLCAGVFFFIDFLVPALAALIICFSSWPLYKKLLVKCGGRSAVAASIALVLIVLGLITPLIFVFSYALQEIRIWAEWLVYANQHGAPVPLWIKDLPWVGEWLTLQWQQFIGEPHELGQIVSAISGQNLTGISRWVLQLGWNTLGLLLTLLFMLITLFFLYKDGESVAKQVDVVGERILPARWYRFSRVVPATVSSTVIGMTLIAIGEGIVLGIAYWIAGVPSAVAFGVLTAFMALIPGGAPTMFTLISLYLVGTGDMTAGVGLFLWGSIELFIVDKTLRPNLVGGPIKLPFLPTFFGLIGGVKTMGFVGLFVGPVLMALLVAIWREWLRDDPDTFVMPESLAPETLEADKVQRRLD”, the protein production is reported as “failed”.

For “MCDAHLRGPSGIITSPNFPIQYDNNAHCVWIITALNPSKAGGDPGNIQCNKEGLSVETQSLRLRNRSCLLGNSKDNGCCVPNPVHGTGLQVIKLAFEEFDLERGYDTLTVGDGGQDGDQKTVLYILTGTSVPDLIVSTNHQMWLLFQTDGSGSSLGFKASYEEIEQGSCGDPGIPAYGRREGSRFHHGDTLKFECQPAFELVGQKAITCQKNNQWSAKKPGCVCK”, the protein production was “failed”.

For “MAANMYRVGDYVYFENSSSNPYLIRRIEELNKTANGNVEAKVVCFYRRRDISSTLIALADKHATLSVCYKAGPGADNGEEGEIEEEMENPEMVDLPEKLKHQLRHRELFLSRQLESLPATHIRGKCSVTLLNETESLKSYLEREDFFFYSLVYDPQQKTLLADKGEIRVGNRYQADITDLLKEGEEDGRDQSRLETQVWEAHNPLTDKQIDQFLVVARSVGTFARALDCSSSVRQPSLHMSAAAASRDITLFHAMDTLHKNIYDISKAISALVPQGGPVLCRDEMEEWSASEANLFEEALEKYGKDFTDIQQDFLPWKSLTSIIEYYYMWKTTDRYVQQKRLKAAEAESKLKQVYIPNYNKPNPNQISVNNVKAGVVNGTGAPGQSPGAGRACESCYTTQSYQWYSWGPPNMQCRLCASCWTYWKKYGGLKMPTRLDGERPGPNRSNMSPHGLPARSSGSPKFAMKTRQAFYLHTTKLTRIARRLCREILRPWHAARHPYLPINSAAIKAECTARLPEASQSPLVLKQAVRKPLEAVLRYLETHPRPPKPDPVKSVSSVLSSLTPAKVAPVINNGSPTILGKRSYEQHNGVDGNMKKRLLMPSRGLANHGQARHMGPSRNLLLNGKSYPTKVRLIRGGSLPPVKRRRMNWIDAPDDVFYMATEETRKIRKLLSSSETKRAARRPYKPIALRQSQALPPRPPPPAPVNDEPIVIED”, the protein production was “failed”.

With “MFALVLAAGRSRRFDGDKRKALLPCGRTLLTACLETAGKVFTETGVVLREDDEVQTLGIPSKVTIIRCKHADLGMGHSLAAGIAAALNSSADAVAILLADMPWIEPQTLRDLARLADPQRIALPMHEGQRGHPVIIGRRFWPRLLALEGDQGAKALITNNPAFCDVMNCDDPGVLRDADTRSALAIACRQHLTAGRDLEHHHHHH” the protein production was “failed”.

For “MQYVMSIIGIIAVLGLCFALSNNKSKINFRAIAIMIGFQILIGWFMFATKIGQQIIIFISKVFNKLIKLGTTGVDFLFNGIHRDFVFFLNVLLIIVFFSALLSIFSYLGVLPFIVRVVGGAISKITGLPRVESFHAVNSVFFGSSEALIVIKNDLQHFNKNRMFIICCSAMSSVSASVTASYVMMLDAKYVLAALPLNLFSSLIVCSLLTPVDTKKEDEVIQKFDRTLFGDSFIGAMINGALDGLKVAGIVAALMIAFIGVMEVVNYVISAASGAMGHAVTLQQIFGYVLSPFAFLMGIPTQDIIPAGGIMGTKIVLNEFVAILDLKDTATTLAPRTVGIVTVFLISFASISQIGAIVGTIRALSEKQGSVVSKFGWKMLFASTLASILSATIAGLFI”, the protein production was “failed”.

For “FRAAAVRVRVPATSANLGPGFDALGLALGLYDDVVVRVADSGLHIDIAGEGSETLPRDEKHLLVRSLRTAFDLLGGQPRGLEIVCANRIPHGRGLGSSSAAICAGIVAARAVTIGGEARLDDAALLDLATEIEGHPDNVAACLLGGFTLSWMES”, the protein production was “failed”.
